This assay addresses Erwinia amylovora AmyR (Erwinia amylovora strain CFBP1430). Nature of the assay: crystal structure; native AmyR at 8 mg/ml, sitting-drop vapour diffusion, 0.1 M sodium cacodylate pH 6.9, 0.2 M magnesium chloride, 46% (v/v) PEG 200, 293 K; 1.95 Å, space group P 2(1)2(1)2; homodimer in the asymmetric unit.

One may read the stoichiometry N as a count of units in the complex or per binding partner. “Erwinia amylovora AmyR (natural protein)”: the stoichiometry N was determined as 2.

These data come from paper PMC5398634.
